Laboratory results published in PMC7397750, “Angiopoietin-like protein 8 differentially regulates ANGPTL3 and ANGPTL4 during postprandial partitioning of fatty acids[S]” (Journal of Lipid Research, 2020).
Where “and” joins values, the source holds several entries; their conditions need not be identical. Equal values may be shown once. Each block holds one molecule with its values, some of them ahead of it.

T1: ANGPTL8 (angiopoietin-like protein 8), endogenous in human serum (human (endogenous in serum), UniProt Q6UXH0 22-198)
T1 construct: ANGPTL8, human, circulating protein of donor serum; also called ANGPLT8; source: endogenous, human serum
T1 sequence (looked up): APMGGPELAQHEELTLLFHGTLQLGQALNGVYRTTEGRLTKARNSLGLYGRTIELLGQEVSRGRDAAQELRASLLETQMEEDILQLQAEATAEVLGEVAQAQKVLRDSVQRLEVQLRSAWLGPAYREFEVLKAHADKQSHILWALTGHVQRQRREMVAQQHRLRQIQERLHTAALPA

B1: LPL (lipoprotein lipase), avidin-tagged (enzyme)
chain: DRITGGKDFRDIESKFALRTPEDTAEDTCHLIPGVTESVANCHFNHSSKTFVVIHGWTVTGMYESWVPKLVAALYKREPDSNVIVVDWLSRAQQHYPVSAGYTKLVGQDVAKFMNWMADEFNYPLGNVHLLGYSLGAHAAGIAGSLTNKKVNRITGLDPAGPNFEYAEAPSRLSPDDADFVDVLHTFTRGSPGRSIGIQKPVGHVDIYPNGGTFQPGCNIGEALRVIAERGLGDVDQLVKCSHERSVHLFIDSLLNEENPSKAYRCNSKEAFEKGLCLSCRKNRCNNMGYEINKVRAKRSSKMYLKTRSQMPYKVFHYQVKIHFSGTESNTYTNQAFEISLYGTVAESENIPFTLPEVSTNKTYSFLLYTEVDIGELLMLKLKWISDSYFSWSNWWSSPGFDIGKIRVKAGETQKKVIFCSREKMSYLQKGKSPVIFVKCHDKSLNRKSG
modifications: biotin/Avi-type tag ('avidin-tagged') for capture on streptavidin, tag omitted; N-glycosylated. The species is not printed. The BLI methods give LPL as from Sigma, whose usual LPL is purified from …
B2: C-terminal HIS-tagged ANGPTL4 (natural protein, human, UniProt Q9BY76-1 26-406, looked up)
chain: GPVQSKSPRFASWDEMNVLAHGLLQLGQGLREHAERTRSQLSALERRLSACGSACQGTEGSTDLPLAPESRVDPEVLHSLQTQLKAQNSRIQQLFHKVAQQQRHLEKQHLRIQHLQSQFGLLDHKHLDHEVAKPARRKRLPEMAQPVDPAHNVSRLHRLPRDCQELFQVGERQSGLFEIQPQGSPPFLVNCKMTSDGGWTVIQRRHDGSVDFNRPWEAYKAGFGDPHGEFWLGLEKVHSITGDRNSRLAVQLRDWDGNAELLQFSVHLGGEDTAYSLQLTAPVAGQLGATTVPPSGLSVPFSTWDQDHDLRRDKNCAKSLSGGWWFGTCSHSNLNGQYFRSIPQQRQKLKKGIFWKTWRGRYYPLQATTMLIQPMAAEAAS
B3: ANGPTL4 (angiopoietin-like protein 4), endogenous in human serum, N-terminally intact (natural protein, human (endogenous in serum), UniProt Q9BY76-1 26-406, looked up)
chain: B2 chain
notes: ANGPTL4, human, circulating protein of donor serum precipitated or captured with an N-terminal ANGPTL4 antibody; Full-length or N-terminal fragment; also called active ANGPTL4; source: endogenous, human serum
B4: recombinant ANGPTL4/8 complex (complex, human)
chain 1: B2 chain
chain 2: T1 sequence (looked up)
B5: C-terminal HIS-tagged ANGPTL3 (natural protein, human, UniProt Q9Y5C1 17-460, looked up)
chain: SRIDQDNSSFDSLSPEPKSRFAMLDDVKILANGLLQLGHGLKDFVHKTKGQINDIFQKLNIFDQSFYDLSLQTSEIKEEEKELRRTTYKLQVKNEEVKNMSLELNSKLESLLEEKILLQQKVKYLEEQLTNLIQNQPETPEHPEVTSLKTFVEKQDNSIKDLLQTVEDQYKQLNQQHSQIKEIENQLRRTSIQEPTEISLSSKPRAPRTTPFLQLNEIRNVKHDGIPAECTTIYNRGEHTSGMYAIRPSNSQVFHVYCDVISGSPWTLIQHRIDGSQNFNETWENYKYGFGRLDGEFWLGLEKIYSIVKQSNYVLRIELEDWKDNKHYIEYSFYLGNHETNYTLHLVAITGNVPNAIPENKDLVFSTWDHKAKGHFNCPEGYSGGWWWHDECGENNLNGKYNKPRAKSKPERRRGLSWKSQNGRLYSIKSTKMLIHPTDSESFE
notes: source: HEK293, transient, purified (Ni-NTA, SEC)
B6: recombinant ANGPTL3/8 complex (complex, human)
chain 1: B5 chain
chain 2: T1 sequence (looked up)

Legend:
[1] = target: ANGPTL8 (angiopoietin-like protein 8), endogenous in human serum (human (endogenous in serum)) (UniProt Q6UXH0); test: affinity purification with mass spectrometry; immunoprecipitation of endogenous complexes from human serum with biotinylated anti-ANGPTL antibodies and streptavidin magnetic beads; trypsin/Lys-C digest; LC-MRM with spiked stable-isotope-labelled peptides; molar ratios from two peptides for each protein
[2] = target: B4; test: BLI; Octet RED96e; avidin-tagged LPL immobilised on streptavidin biosensors; 50 nM ANGPTL protein or complex; dissociation in buffer-only wells; settings: both partners purified
[3] = target: B1; test: cell-based or functional assay
[4] = target: T1, ANGPTL8 (angiopoietin-like protein 8), …; test: affinity purification with mass spectrometry; immunoprecipitation of endogenous complexes from human serum with biotinylated anti-ANGPTL antibodies and streptavidin magnetic beads; trypsin/Lys-C digest; LC-MRM with spiked stable-isotope-labelled peptides; molar ratios from two peptides for each protein; settings: partners not purified

stoichiometry N (ANGPTL3 per ANGPTL8 (protein ratio)) [1]: 3.4 and 3.5
Molecule: ANGPTL3 (angiopoietin-like protein 3), endogenous in human serum (natural protein)

Molecule: B1
Kd [2]: < 0.001 nM
koff [2]: < 1e-07 s⁻¹
kon [2]: 48000 M⁻¹ s⁻¹

Molecule: B2
IC50 of inhibition of LPL enzymatic activity; human LPL-stable expression cells, BODIPY-TG (EnzChek) substrate [3]: 0.29 nM
IC50 of inhibition of LPL enzymatic activity; human LPL-stable expression cells, VLDL substrate, NEFA released [3]: 0.44 nM

Molecule: B3
stoichiometry N [4]: 0.8 ANGPTL4 per ANGPTL8 (protein ratio)

Molecule: B4
IC50 of inhibition of LPL enzymatic activity; human LPL-stable expression cells, BODIPY-TG (EnzChek) substrate [3]: 37 nM
IC50 of inhibition of LPL enzymatic activity; human LPL-stable expression cells, VLDL substrate, NEFA released [3]: 105 nM

Molecule: B5
IC50 of inhibition of LPL enzymatic activity; human LPL-stable expression cells, BODIPY-TG (EnzChek) substrate [3]: 26 nM

Molecule: B6
IC50 of inhibition of LPL enzymatic activity; human LPL-stable expression cells, BODIPY-TG (EnzChek) substrate [3]: 0.14 nM
